Data reported in publication PMC6450059.
Each block holds one substance with its values, some of them ahead of it.

What was measured:
[1] = target: Suppressor of copper sensitivity protein C from Proteus mirabilis (PmScsC) (Proteus mirabilis); assay: SAXS; native PmScsC, concentration series 0.1-10.0 mg ml^-1 in 10 mM HEPES pH 7.4, 150 mM NaCl, 283 K; linear combination of monomer and trimer scattering curves, global (common K t) and independent optimization; K t: monomers and trimer
[2] = target: PmScsCΔLinker (Proteus mirabilis); assay: crystal structure; PmScsCΔLinker 40 mg ml^-1 in 10 mM HEPES pH 7.4, 150 mM NaCl; 0.1 M HEPES pH 7, 32%(v/v) Jeffamine M-600; 293 K; space group H32, one protomer in the asymmetric unit, trimer through crystallographic symmetry
[3] = target: PmScsCΔLinker (Proteus mirabilis); assay: SAXS; PmScsCΔLinker, concentration series 0.1-10.0 mg ml^-1 in 10 mM HEPES pH 7.4, 150 mM NaCl, 283 K; linear combination of monomer, dimer and trimer scattering curves, global (common K d and K t) and independent optimization; K d: monomers and dimer; K t: monomer, dimer and trimer

K t (equilibrium constant for trimer formation, monomers and trimer) [1]: 6.3e-18 M^2
monomer fraction at 0.1 mg/ml (global optimization) [1]: 0.01
monomer fraction at 0.1 mg/ml (independent optimization) [1]: 0.21
monomer fraction at 0.5 mg/ml (global optimization) [1]: 0
monomer fraction at 0.5 mg/ml (independent optimization) [1]: 0.04
monomer fraction at 2.0 mg/ml (global optimization) [1]: 0
monomer fraction at 2.0 mg/ml (independent optimization) [1]: 0
monomer fraction at 5.0 mg/ml (global optimization) [1]: 0
monomer fraction at 5.0 mg/ml (independent optimization) [1]: 0
monomer fraction at 10.0 mg/ml (global optimization) [1]: 0
monomer fraction at 10.0 mg/ml (independent optimization) [1]: 0
stoichiometry N [1]: 3
trimer fraction at 0.1 mg/ml (global optimization) [1]: 0.99
trimer fraction at 0.1 mg/ml (independent optimization) [1]: 0.79
trimer fraction at 0.5 mg/ml (global optimization) [1]: 1
trimer fraction at 0.5 mg/ml (independent optimization) [1]: 0.96
trimer fraction at 2.0 mg/ml (global optimization) [1]: 1
trimer fraction at 2.0 mg/ml (independent optimization) [1]: 1
trimer fraction at 5.0 mg/ml (global optimization) [1]: 1
trimer fraction at 5.0 mg/ml (independent optimization) [1]: 1
trimer fraction at 10.0 mg/ml (global optimization) [1]: 1
trimer fraction at 10.0 mg/ml (independent optimization) [1]: 1
Substance: Suppressor of copper sensitivity protein C from Proteus mirabilis (PmScsC) (enzyme)

Substance: PmScsCΔLinker (enzyme)
stoichiometry N [2]: 3
K t (equilibrium constant for trimer formation, from monomer and dimer) [3]: 730 µM
Kd [3]: 210 µM
dimer fraction at 0.1 mg/ml (global optimization) [3]: 0.03
dimer fraction at 0.1 mg/ml (independent optimization) [3]: 0
dimer fraction at 0.5 mg/ml (global optimization) [3]: 0.12
dimer fraction at 0.5 mg/ml (independent optimization) [3]: 0
dimer fraction at 2.0 mg/ml (global optimization) [3]: 0.27
dimer fraction at 2.0 mg/ml (independent optimization) [3]: 0.33
dimer fraction at 5.0 mg/ml (global optimization) [3]: 0.41
dimer fraction at 5.0 mg/ml (independent optimization) [3]: 0.37
dimer fraction at 10.0 mg/ml (global optimization) [3]: 0.48
dimer fraction at 10.0 mg/ml (independent optimization) [3]: 0.49
monomer fraction at 0.1 mg/ml (global optimization) [3]: 0.97
monomer fraction at 0.1 mg/ml (independent optimization) [3]: 1
monomer fraction at 0.5 mg/ml (global optimization) [3]: 0.88
monomer fraction at 0.5 mg/ml (independent optimization) [3]: 0.94
monomer fraction at 2.0 mg/ml (global optimization) [3]: 0.71
monomer fraction at 2.0 mg/ml (independent optimization) [3]: 0.67
monomer fraction at 5.0 mg/ml (global optimization) [3]: 0.53
monomer fraction at 5.0 mg/ml (independent optimization) [3]: 0.55
monomer fraction at 10.0 mg/ml (global optimization) [3]: 0.4
monomer fraction at 10.0 mg/ml (independent optimization) [3]: 0.37
trimer fraction at 0.1 mg/ml (global optimization) [3]: 0
trimer fraction at 0.1 mg/ml (independent optimization) [3]: 0
trimer fraction at 0.5 mg/ml (global optimization) [3]: 0
trimer fraction at 0.5 mg/ml (independent optimization) [3]: 0.06
trimer fraction at 2.0 mg/ml (global optimization) [3]: 0.02
trimer fraction at 2.0 mg/ml (independent optimization) [3]: 0
trimer fraction at 5.0 mg/ml (global optimization) [3]: 0.07
trimer fraction at 5.0 mg/ml (independent optimization) [3]: 0.08
trimer fraction at 10.0 mg/ml (global optimization) [3]: 0.12
trimer fraction at 10.0 mg/ml (independent optimization) [3]: 0.1
